Reference: US20040234530

T1: α1-antichymotrypsin (Sigma, St. Louis, MO), P01011
T1 chain: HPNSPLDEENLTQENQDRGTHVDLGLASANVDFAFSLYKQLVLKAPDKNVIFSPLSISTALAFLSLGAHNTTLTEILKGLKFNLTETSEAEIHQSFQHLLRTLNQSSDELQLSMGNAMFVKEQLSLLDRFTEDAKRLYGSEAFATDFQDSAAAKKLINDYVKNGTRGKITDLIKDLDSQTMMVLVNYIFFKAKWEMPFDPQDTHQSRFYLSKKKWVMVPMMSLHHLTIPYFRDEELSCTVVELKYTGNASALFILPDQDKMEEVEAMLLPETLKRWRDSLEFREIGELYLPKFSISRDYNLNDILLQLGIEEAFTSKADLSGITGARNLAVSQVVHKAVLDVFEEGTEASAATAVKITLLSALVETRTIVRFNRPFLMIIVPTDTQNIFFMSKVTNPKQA

T2: α2-macroglobulin (Calbiochem, San Diego, CA), P01023
T2 chain: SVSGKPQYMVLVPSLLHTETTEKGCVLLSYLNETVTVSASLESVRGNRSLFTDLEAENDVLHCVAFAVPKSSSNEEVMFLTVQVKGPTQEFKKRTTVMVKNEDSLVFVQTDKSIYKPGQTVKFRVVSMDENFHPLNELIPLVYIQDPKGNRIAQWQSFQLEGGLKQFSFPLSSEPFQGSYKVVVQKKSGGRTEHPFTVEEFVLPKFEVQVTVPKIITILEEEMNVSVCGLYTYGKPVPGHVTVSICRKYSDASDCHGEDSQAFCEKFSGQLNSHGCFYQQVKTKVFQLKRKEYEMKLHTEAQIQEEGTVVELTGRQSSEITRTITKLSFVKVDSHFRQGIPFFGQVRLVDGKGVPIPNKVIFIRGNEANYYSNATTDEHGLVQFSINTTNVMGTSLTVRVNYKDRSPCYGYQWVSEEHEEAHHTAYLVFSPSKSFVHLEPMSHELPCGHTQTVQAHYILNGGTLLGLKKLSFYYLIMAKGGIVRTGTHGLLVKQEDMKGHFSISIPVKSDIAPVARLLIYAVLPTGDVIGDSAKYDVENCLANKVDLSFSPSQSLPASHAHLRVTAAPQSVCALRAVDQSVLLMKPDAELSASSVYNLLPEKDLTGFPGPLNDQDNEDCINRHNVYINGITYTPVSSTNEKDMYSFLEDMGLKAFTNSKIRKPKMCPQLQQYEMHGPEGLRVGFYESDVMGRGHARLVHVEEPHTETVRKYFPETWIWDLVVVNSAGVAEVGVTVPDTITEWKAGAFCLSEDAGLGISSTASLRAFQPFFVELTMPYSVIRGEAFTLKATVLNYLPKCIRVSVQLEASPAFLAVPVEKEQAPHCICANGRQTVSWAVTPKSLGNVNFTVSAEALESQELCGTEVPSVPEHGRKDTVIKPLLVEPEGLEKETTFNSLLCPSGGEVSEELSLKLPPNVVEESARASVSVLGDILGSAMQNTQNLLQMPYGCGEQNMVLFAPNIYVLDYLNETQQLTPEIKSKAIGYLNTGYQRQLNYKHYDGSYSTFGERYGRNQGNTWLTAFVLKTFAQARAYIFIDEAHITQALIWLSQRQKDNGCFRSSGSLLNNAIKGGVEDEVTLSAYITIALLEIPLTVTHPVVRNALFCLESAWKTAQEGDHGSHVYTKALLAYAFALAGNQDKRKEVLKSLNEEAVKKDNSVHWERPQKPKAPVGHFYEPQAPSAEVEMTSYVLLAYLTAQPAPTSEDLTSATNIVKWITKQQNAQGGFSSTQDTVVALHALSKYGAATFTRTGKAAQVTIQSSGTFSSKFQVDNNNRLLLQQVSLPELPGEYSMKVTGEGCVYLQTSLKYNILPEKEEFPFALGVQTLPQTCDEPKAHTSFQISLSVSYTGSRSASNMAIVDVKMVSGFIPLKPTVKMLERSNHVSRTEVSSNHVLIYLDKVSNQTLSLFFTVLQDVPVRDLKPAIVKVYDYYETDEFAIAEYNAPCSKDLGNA

T3: α2-antiplasmin (Calbiochem, San Diego, CA), P08697
T3 chain: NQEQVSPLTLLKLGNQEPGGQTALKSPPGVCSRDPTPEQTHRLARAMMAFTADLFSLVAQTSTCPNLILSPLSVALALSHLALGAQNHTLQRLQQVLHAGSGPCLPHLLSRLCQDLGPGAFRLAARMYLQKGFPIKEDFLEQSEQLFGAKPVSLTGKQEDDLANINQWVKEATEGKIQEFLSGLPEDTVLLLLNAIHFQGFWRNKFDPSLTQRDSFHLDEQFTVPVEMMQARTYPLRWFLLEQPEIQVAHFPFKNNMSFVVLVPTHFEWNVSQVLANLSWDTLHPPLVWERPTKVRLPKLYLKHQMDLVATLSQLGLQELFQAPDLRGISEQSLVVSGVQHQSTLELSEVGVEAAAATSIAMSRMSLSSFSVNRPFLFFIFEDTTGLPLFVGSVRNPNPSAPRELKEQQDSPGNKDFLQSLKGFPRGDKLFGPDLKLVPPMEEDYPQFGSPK

T4: C1-esterase inhibitor (human plasma protease C1 inhibitor), purified or in human serum, P05155
T4 chain: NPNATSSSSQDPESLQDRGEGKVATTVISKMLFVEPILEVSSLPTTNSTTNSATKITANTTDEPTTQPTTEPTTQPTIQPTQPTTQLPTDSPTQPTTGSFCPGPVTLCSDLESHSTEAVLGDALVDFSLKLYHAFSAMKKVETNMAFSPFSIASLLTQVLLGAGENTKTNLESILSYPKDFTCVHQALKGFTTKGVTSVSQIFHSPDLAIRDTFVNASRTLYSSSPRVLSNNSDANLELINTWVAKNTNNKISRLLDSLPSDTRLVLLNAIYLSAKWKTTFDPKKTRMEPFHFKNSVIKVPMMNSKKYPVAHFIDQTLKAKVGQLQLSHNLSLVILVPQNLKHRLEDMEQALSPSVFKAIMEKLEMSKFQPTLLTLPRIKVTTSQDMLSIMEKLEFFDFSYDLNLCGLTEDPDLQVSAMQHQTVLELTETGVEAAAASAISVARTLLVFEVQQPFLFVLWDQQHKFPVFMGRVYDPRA

T5: recombinant, full-length human C1-INH (hC1-INH) expressed in COS-7 cells, 35S-methionine-labeled, P05155
T5 chain: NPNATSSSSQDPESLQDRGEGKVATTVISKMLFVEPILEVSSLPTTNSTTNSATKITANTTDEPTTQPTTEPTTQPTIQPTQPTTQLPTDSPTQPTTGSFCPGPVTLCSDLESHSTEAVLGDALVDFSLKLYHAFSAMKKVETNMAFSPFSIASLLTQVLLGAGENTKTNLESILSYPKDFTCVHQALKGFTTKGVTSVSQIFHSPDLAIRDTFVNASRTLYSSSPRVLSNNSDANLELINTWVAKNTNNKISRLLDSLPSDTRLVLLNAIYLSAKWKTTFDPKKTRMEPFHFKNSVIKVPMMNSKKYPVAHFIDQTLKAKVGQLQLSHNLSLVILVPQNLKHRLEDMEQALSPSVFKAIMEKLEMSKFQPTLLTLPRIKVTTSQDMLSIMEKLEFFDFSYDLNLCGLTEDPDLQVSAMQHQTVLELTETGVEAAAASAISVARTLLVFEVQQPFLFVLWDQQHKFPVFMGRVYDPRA

T6: C-serp(98), a recombinant C1-INH molecule lacking the N-terminal amino acids 1-97 and containing only the serpin domain, P05155
T6 chain: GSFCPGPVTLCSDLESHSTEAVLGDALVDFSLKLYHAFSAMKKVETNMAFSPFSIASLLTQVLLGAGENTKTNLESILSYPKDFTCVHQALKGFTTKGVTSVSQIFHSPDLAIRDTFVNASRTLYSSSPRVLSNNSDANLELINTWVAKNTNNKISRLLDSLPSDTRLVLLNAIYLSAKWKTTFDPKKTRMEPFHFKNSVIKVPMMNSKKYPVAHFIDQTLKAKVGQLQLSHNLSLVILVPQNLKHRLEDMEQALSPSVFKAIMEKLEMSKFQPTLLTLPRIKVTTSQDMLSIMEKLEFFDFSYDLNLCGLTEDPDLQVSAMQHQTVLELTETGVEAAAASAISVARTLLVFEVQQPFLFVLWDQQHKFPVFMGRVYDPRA

B1: StcE-His (recombinant his-tagged form of StcE, from pWL107 in BL21(DE3), strain WAM2572) (protein)
chain: ADNNSAIYFNTSQPINDLQGSLAAEVKFAQSQILPAHPKEGDSQPHLTSLRKSLLLVRPVKADDKTPVQVEARDDNNKILGTLTLYPPSSLPDTIYHLDGVPEGGIDFTPHNGTKKIINTVAEVNKLSDASGSSIHSHLTNNALVEIHTANGRWVRDIYLPQGPDLEGKMVRFVSSAGYSSTVFYGDRKVTLSVGNTLLFKYVNGQWFRSGELENNRITYAQHIWSAELPAHWIVPGLNLVIKQGNLSGRLNDIKIGAPGELLLHTIDIGMLTTPRDRFDFAKDKEAHREYFQTIPVSRMIVNNYAPLHLKEVMLPTGELLTDMDPGNGGWHSGTMRQRIGKELVSHGIDNANYGLNSTAGLGENSHPYVVAQLAAHNSRGNYANGIQVHGGSGGGGIVTLDSTLGNEFSHEVGHNYGLGHYVDGFKGSVHRSAENNNSTWGWDGDKKRFIPNFYPSQTNEKSCLNNQCQEPFDGHKFGFDAMAGGSPFSAANRFTMYTPNSSAIIQRFFENKAVFDSRSSTGFSKWNADTQEMEPYEHTIDRAEQITASVNELSESKMAELMAEYAVVKVHMWNGNWTRNIYIPTASADNRGSILTINHEAGYNSYLFINGDEKVVSQGYKKSFVSDGQFWKERDVVDTREARKPEQFGVPVTTLVGYYDPEGTLSSYIYPAMYGAYGFTYSDDSQNLSDNDCQLQVDTKEGQLRFRLANHRANNTVMNKFHINVPTESQPTQATLVCNNKILDTKSLTPAPEGLTYTVNGQALPAKENEGCIVSVNSGKRYCLPVGQRSGYSLPDWIVGQEVYVDSGAKAKVLLSDWDNLSYNRIGEFVGNVNPADMKKVKAWNGQYLDFSKPRSMRVVYKHHHHHH
B2: StcE′-His (lacking the StcE N-terminal signal sequence, 6xHis tag at the C-terminus; from pTB4, strain WAM2751) (protein)
chain: ADNNSAIYFNTSQPINDLQGSLAAEVKFAQSQILPAHPKEGDSQPHLTSLRKSLLLVRPVKADDKTPVQVEARDDNNKILGTLTLYPPSSLPDTIYHLDGVPEGGIDFTPHNGTKKIINTVAEVNKLSDASGSSIHSHLTNNALVEIHTANGRWVRDIYLPQGPDLEGKMVRFVSSAGYSSTVFYGDRKVTLSVGNTLLFKYVNGQWFRSGELENNRITYAQHIWSAELPAHWIVPGLNLVIKQGNLSGRLNDIKIGAPGELLLHTIDIGMLTTPRDRFDFAKDKEAHREYFQTIPVSRMIVNNYAPLHLKEVMLPTGELLTDMDPGNGGWHSGTMRQRIGKELVSHGIDNANYGLNSTAGLGENSHPYVVAQLAAHNSRGNYANGIQVHGGSGGGGIVTLDSTLGNEFSHEVGHNYGLGHYVDGFKGSVHRSAENNNSTWGWDGDKKRFIPNFYPSQTNEKSCLNNQCQEPFDGHKFGFDAMAGGSPFSAANRFTMYTPNSSAIIQRFFENKAVFDSRSSTGFSKWNADTQEMEPYEHTIDRAEQITASVNELSESKMAELMAEYAVVKVHMWNGNWTRNIYIPTASADNRGSILTINHEAGYNSYLFINGDEKVVSQGYKKSFVSDGQFWKERDVVDTREARKPEQFGVPVTTLVGYYDPEGTLSSYIYPAMYGAYGFTYSDDSQNLSDNDCQLQVDTKEGQLRFRLANHRANNTVMNKFHINVPTESQPTQATLVCNNKILDTKSLTPAPEGLTYTVNGQALPAKENEGCIVSVNSGKRYCLPVGQRSGYSLPDWIVGQEVYVDSGAKAKVLLSDWDNLSYNRIGEFVGNVNPADMKKVKAWNGQYLDFSKPRSMRVVYKHHHHHH
B3: Pseudomonas aeruginosa elastase (Calbiochem EC# 3.4.24.26) (protein)
chain: AEAGGPGGNQKIGKYTYGSDYGPLIVNDRCEMDDGNVITVDMNSSTDDSKTTPFRFACPTNTYKQVNGAYSPLNDAHFFGGVVFKLYRDWFGTSPLTHKLYMKVHYGRSVENAYWDGTAMLFGDGATMFYPLVSLDVAAHEVSHGFTEQNSGLIYRGQSGGMNEAFSDMAGEAAEFYMRGKNDFLIGYDIKKGSGALRYMDQPSRDGRSIDNASQYYNGIDVHHSSGVYNRAFYLLANSPGWDTRKAFEVFVDANRYYWTATSNYNSGACGVIRSAQNRNYSAADVTRAFSTVGVTCPSAL

Key:
[1] = target: collagen IV (Rockland, Gilbertsville, PA)
[2] = target: Elastin (Sigma, St. Louis, MO)
[3] = target: BODIPY FL-conjugated casein (EnzChek Protease Assay Kit, Molecular Probes)
[4] = target: fibronectin (Calbiochem, San Diego, CA), P02751
fibronectin (Calbiochem, San Diego, CA), P02751, sequence (P02751 32-2477): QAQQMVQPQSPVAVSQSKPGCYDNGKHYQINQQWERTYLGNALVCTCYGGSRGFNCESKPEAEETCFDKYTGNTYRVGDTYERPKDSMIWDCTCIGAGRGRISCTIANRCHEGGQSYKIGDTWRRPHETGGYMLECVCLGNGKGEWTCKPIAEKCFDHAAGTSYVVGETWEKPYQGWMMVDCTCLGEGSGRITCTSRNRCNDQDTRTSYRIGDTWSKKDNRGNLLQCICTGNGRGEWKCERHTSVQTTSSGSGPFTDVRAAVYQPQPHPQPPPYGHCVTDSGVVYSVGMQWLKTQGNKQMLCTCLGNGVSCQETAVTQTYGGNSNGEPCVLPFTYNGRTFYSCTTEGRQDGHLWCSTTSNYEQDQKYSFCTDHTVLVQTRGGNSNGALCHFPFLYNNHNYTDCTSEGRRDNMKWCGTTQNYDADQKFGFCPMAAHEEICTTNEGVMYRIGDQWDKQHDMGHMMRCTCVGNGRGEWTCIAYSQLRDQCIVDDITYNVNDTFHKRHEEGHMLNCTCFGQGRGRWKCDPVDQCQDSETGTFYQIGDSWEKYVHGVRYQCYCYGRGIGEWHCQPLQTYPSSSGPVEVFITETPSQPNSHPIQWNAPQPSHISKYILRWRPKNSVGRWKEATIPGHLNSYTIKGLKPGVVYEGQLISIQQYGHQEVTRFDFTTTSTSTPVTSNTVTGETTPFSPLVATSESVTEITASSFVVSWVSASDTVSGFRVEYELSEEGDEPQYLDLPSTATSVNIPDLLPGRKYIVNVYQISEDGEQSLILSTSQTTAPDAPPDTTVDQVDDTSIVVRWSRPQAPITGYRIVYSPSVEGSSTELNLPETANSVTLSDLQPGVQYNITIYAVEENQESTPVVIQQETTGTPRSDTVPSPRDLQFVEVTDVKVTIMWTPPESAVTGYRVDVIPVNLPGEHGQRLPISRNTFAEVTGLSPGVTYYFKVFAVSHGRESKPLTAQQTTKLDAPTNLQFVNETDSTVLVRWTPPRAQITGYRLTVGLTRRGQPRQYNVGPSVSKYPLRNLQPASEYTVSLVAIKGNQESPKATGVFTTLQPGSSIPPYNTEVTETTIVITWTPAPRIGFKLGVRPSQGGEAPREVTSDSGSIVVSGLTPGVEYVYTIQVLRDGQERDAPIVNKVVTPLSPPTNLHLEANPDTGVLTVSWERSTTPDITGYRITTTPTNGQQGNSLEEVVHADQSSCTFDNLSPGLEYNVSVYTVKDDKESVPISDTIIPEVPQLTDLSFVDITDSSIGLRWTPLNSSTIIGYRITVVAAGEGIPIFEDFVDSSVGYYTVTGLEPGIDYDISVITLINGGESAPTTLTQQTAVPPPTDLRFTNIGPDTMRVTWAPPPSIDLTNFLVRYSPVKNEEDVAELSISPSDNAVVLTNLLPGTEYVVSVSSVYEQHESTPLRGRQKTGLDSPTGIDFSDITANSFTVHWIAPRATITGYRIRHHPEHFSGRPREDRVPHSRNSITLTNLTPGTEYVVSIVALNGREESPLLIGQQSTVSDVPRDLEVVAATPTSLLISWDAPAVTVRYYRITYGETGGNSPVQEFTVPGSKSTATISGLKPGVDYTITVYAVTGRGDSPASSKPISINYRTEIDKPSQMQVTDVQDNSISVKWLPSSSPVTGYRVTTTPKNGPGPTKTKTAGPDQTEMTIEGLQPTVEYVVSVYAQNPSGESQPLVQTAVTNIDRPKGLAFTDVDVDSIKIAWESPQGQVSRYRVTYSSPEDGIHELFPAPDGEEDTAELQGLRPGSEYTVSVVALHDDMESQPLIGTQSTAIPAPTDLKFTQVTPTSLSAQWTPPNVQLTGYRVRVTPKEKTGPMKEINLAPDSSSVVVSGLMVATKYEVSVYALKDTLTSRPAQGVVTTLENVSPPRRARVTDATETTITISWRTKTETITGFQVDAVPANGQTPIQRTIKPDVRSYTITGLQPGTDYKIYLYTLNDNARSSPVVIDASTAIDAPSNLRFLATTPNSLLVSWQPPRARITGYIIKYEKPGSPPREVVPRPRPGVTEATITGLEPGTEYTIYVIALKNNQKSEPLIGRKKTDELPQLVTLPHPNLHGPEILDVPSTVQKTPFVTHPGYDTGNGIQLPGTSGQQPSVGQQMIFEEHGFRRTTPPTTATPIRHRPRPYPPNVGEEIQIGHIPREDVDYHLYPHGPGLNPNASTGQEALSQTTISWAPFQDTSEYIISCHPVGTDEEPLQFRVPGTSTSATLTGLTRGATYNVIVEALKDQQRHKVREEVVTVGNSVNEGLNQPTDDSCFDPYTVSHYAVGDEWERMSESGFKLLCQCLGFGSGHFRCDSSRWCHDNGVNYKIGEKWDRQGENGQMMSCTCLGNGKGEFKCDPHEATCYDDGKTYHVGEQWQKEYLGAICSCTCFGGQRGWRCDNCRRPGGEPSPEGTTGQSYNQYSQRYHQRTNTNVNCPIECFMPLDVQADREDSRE

[5] = target: α1-antitrypsin (Sigma, St. Louis, MO), P01009
α1-antitrypsin (Sigma, St. Louis, MO), P01009, sequence (P01009 whole entry, looked up): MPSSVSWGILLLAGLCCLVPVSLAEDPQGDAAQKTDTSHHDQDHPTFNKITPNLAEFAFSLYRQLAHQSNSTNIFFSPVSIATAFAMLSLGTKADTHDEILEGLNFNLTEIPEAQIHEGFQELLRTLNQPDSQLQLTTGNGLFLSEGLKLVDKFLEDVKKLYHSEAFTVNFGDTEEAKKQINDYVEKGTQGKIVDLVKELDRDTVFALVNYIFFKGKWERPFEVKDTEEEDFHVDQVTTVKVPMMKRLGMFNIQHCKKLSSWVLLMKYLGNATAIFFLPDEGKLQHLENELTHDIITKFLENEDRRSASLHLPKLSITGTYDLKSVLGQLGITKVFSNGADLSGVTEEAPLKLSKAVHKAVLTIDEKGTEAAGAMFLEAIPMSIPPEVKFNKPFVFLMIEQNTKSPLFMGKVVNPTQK

[6] = target: Gelatin (BioRad, Hercules, CA)
[7] = target: antithrombin (Enzyme Research Labs, South Bend, IN), P01008
antithrombin (Enzyme Research Labs, South Bend, IN), P01008, sequence (P01008 whole entry, looked up): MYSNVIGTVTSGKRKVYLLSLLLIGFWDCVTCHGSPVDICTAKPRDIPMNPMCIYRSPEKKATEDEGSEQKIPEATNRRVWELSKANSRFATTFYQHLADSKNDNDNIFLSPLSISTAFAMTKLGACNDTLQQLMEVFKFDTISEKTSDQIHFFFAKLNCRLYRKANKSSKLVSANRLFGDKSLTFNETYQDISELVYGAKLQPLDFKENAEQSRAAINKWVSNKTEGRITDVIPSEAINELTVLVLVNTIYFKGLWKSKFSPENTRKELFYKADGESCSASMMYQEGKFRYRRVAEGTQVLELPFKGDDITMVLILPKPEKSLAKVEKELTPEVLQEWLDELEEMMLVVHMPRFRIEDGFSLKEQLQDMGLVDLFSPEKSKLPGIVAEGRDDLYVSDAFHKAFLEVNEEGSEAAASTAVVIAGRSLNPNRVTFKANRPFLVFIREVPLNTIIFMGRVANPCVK

[8] = target: serum albumin (New England Biolabs, Beverly, MA)
[9] = target: T1, α1-antichymotrypsin (Sigma, St. Louis, …)
[10] = target: T2, α2-macroglobulin (Calbiochem, San …)
[11] = target: von Willebrand factor (gift from Dr. D. Mosher, UW-Madison), P04275
[12] = target: T3, α2-antiplasmin (Calbiochem, San Diego, …)
[13] = target: T4, C1-esterase inhibitor (human plasma …)
[14] = target: T5, recombinant, full-length human C1-INH …
[15] = target: T6, C-serp(98), a recombinant C1-INH …

Protein	Proteolysis of substrates [1]	Proteolysis of substrates [2]	fluorescent measurement of casein degradation [3]	Proteolysis of substrates [4]	Proteolysis of substrates [5]	Proteolysis of substrates [6]	Proteolysis of substrates [7]	Proteolysis of substrates [8]	Proteolysis of substrates [9]	Proteolysis of substrates [10]	Proteolysis of substrates [11]	Proteolysis of substrates [12]	Proteolysis of substrates [13]	cleavage of 35S-labeled recombinant protein (immunoprecipitation, SDS-PAGE) [14]	cleavage of 35S-labeled recombinant protein (immunoprecipitation, SDS-PAGE) [15]
B1	-	-	StcE-His was unable to degrade casein even at high protein concentrations (up to 6.4 µg/unit of volume)	-	-	-	-	-	-	-	-	-	+		
B2														only hC1-INH was cleaved by StcE′-His	C-serp(98) was unaffected by the protease
B3	-	+	elastase was able to act on casein at lower concentrations (range: 0.5 ng to 1 µg/unit of volume)	+	+	+	+		+	+		+	+		
